Data published in IntAct's records for PubMed 18818696.

B1: Protein SGT1 homolog (Homo sapiens), Q9Y2Z0-2 (parent)
chain: MAAAAAGTATSQRFFQSFSDALIDEDPQAALEELTKALEQKPDDAQYYCQRAYCHILLGNYCVAVADAKKSLELNPNNSTAMLRKGICEYHEKNYAAALETFTEGQKLDSADANFSVWIKRCQEAQNGSESEVWTHQSKIKYDWYQTESQVVITLMIKNVQKNDVNVEFSEKELSALVKLPSGEDYNLKLELLHPIIPEQSTFKVLSTKIEIKLKKPEAVRWEKLEGQGDVPTPKQFVADVKNLYPSSSPYTRNWDKLVGEIKEEEKNEKLEGDAALNRLFQQIYSDGSDEVKRAMNKSFMESGGTVLSTNWSDVGKRKVEINPPDDMEWKKY

Variants of: B1
Conditions: with skp1_human SKP1, P63208
Sequence of skp1_human SKP1, P63208 (P63208 whole entry): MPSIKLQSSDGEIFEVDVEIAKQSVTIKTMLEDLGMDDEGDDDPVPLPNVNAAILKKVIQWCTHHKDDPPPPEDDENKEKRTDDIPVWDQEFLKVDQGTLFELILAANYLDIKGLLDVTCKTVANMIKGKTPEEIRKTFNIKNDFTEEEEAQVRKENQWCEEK

effect of a mutation on the interaction | Variant
increasing interaction | Y145R
